Data set [1] has as its target human serum albumin (HSA) (UniProt P02768).
For data set [2], the target named is streptavidin (on Dynabeads) (UniProt P22629).
For data set [3], the target named is human IgG (on Sepharose, Pharmacia) (human). The experiment in a line: cell-based or functional assay.

Chain of UniProt P22629 (P22629 whole entry, looked up): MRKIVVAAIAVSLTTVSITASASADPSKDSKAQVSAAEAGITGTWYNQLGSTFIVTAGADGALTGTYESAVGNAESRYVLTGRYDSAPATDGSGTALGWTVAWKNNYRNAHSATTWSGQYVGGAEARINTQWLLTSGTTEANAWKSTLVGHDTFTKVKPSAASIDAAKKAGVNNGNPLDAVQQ

Consider “TagTaq fusion protein (Bio-His6-ABP fused to Taq DNA polymerase I residues 3-832)”, for which, in data set [1], the “hot start PCR of K-ras (primer-dimer formation)” value is “using either a conventional hot start procedure (lane 8) or immobilized TagTaq polymerase (lanes 1 to 3), high yields of essentially pure, full-length PCR products free from primer-dimers are obtained”; the “hot-start effect in kRAS PCR (primer-dimer formation)” value is “All the immobilised enzymes show hot-start effect in PCR with regard to preventing primer-dimer formation”; the “primer extension (190 nt product) at 60° C., immobilized enzyme” value is recorded as “TagTaq protein: HSA-Sepharose incubated with the substrate at the same temperature resulted in only very small amounts of the 190 nt extension product”; the “relative polymerase activity at 45-75° C. and after 95° C.” value is recorded as “TagTaq indeed is active in the presence of HSA-Sepharose, but only after incubation at a temperature high enough to break the ABP-HSA affinity interaction”. For the same substance, in data set [2], the “hot-start effect in kRAS PCR (primer-dimer formation)” value is given as “All the immobilised enzymes show hot-start effect in PCR with regard to preventing primer-dimer formation”.
In the case of “Z-ΔTaq fusion protein (from UniProt P0AD92 1-8; P38507 212-269; P19821 236-832) (enzyme)”, in data set [3], the Peak area of the 190-bp extension product, heat-released enzyme (95° C.-treated Z-ΔTaq-human IgG-Sepharose) is 8380; the Peak area of the 190-bp extension product, immobilized enzyme (polymerase activity at 50° C.) stood at 594; the increase of the area of the 190-peak, free or heat-released enzyme against enzyme on beads heated only to 50° C. is over 15 times.
